This series is described as follows: yeast display, Sf9 membrane polyspecificity reagent, FACS + sequencing; frameworks hold sequencing errors. The gist of the method:
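Galactose-induced (36–48 hours) yeast carrying a synthetic nanobody display library were exposed to 10% biotinylated, detergent-solubilized Sf9 membrane reagent at 4 °C for 1 hour. FACS followed streptavidin microbead enrichment, using low and high (top ~1%) gates for expression (anti-HA) and reagent binding (streptavidin). Colony PCR, MiSeq 2 × 250 sequencing and CDR-length filtering followed. Labels for polyreactivity reflect the gate of origin.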
As to “QVQLVESGGGLVQAGGSLRLSCAASGFIFYGYAMGWYIQAPGKERELVATISRRGGSTYYADSVKGRFTISRDNAKNTVYLQMNSLKPEDSAVYYCAKRRGTQEPTYVPTRSNGFDYWGHGTQVTVSS”, the “polyreactivity (PSR sort gate)” value is listed as “low polyreactivity”.

For “QVQLVESGGGLVQAGGSLRLSCAASGFIFYHYAMGWYRQAPGKERELVAAISRRTGSTYYADSVKGRFTISRDNAKNTDYLQMNSLKPEDTSVYYCAADAYFIYSRYWYDYWGQGTQVTVSS”, the “polyreactivity (PSR sort gate)” value is “high polyreactivity”.

In the case of “QVQLVESGGGLVQAGGSLRLSCAASGFIFYINAMGWYRQAPGKERELVAAISTSGGSTYYADSVKGRFTISRDNAKNTVYLQMNSLKPEDTAVYYCAAEGSYWYYSYDYWGQGTQVTVSS”, the “polyreactivity (PSR sort gate)” value is reported as “high polyreactivity”.

Turning to “QVQLVESGGGLVQAGGSLRLSCAASGFIFYIYAMGWYRQAPGKERELVAAISRSSARTYYADSVKGRFTISRYNAKNTVYLQMISLKPEDTAVYDCAARYSGQWYRGPQYGYWGQGTQVTVSS”, the “polyreactivity (PSR sort gate)” value is listed as “high polyreactivity”.

As for “QVQLVESGGGLVQAGGSLRLSCAASGFIFYKNAMGWYRKAPGKERELVAAISSRGGSTSYADSVKGRFTISRDNAKNTVYLQMNSLKREDTAVYYCAAYPDYSYYYWGQGTQVTVSS”, the “polyreactivity (PSR sort gate)” value is on record as “high polyreactivity”.

For the sequence “QVQLVESGGGLVQAGGSLRLSCAASGFIFYKNTMGWYRQAPGKERELVAAITDGDHTNYADSVKGRFTISRDYAKNTVYLQMNSLKPEDTAVYYCAADYAWNYAFGYWGQGTQVTVSS”, the “polyreactivity (PSR sort gate)” value is “low polyreactivity”.

Take “QVQLVESGGGLVQAGGSLRLSCAASGFIFYKYAMGWYRQAPGKERELVAAITWRGGRTNYADSVKGRFTISRDYAKNTVYLQMNSLKPEDTAVYYCAADPWSSSYYYSYEYWGQGTQVTVSS”: the “polyreactivity (PSR sort gate)” value is on record as “high polyreactivity”.

With “QVQLVESGGGLVQAGGSLRLSCAASGFIFYLYAMGWYRPAPGKERELVAAISRRGGSTYYADSVKGRFTISRDNAKNTVYLQMNSLKPEDTAVYYCAAYGDDGRDYWGQGTQVTVSS”, the “polyreactivity (PSR sort gate)” value was “high polyreactivity”.

Turning to “QVQLVESGGGLVQAGGSLRLSCAASGFIFYNYAMGWYRQAPGKERELVADINSTGITYYADSVKGRFTISRDNAKNTVYLQMNSLKPEDTAVYYCAKDILTSSYRAYSPFEYGYWGQGTQVTVSS”, the “polyreactivity (PSR sort gate)” value is given as “low polyreactivity”.

In the case of “QVQLVESGGGLVQAGGSLRLSCAASGFIFYQYAMGWYRQAPGKERELVAVINKSGGRTYYADSVKGRFTISRDNAKNTVYLQMNSLKPEDPAVYYCNAVSKLAVNLDYWGQGTQVTVSS”, the “polyreactivity (PSR sort gate)” value is recorded as “high polyreactivity”.

“QVQLVESGGGLVQAGGSLRLSCAASGFIFYQYTMGWYRQAPGKERELVAAISSGGSTYYADSVKGRFTISRDNAKNTVYLQMNSLKPEDTAVYYCAAVAYGNWYRYYYWGQGTQVTVSS”: the “polyreactivity (PSR sort gate)” value is reported as “high polyreactivity”.

In the case of “QVQLVESGGGLVQAGGSLRLSCAASGFIFYRNTKGWYRQAPGKEREFVAAIRWRGGSTYYADSVKGRFTISRDNAKNTVYLQMNSLNPEDTAVYYCNAPYKQDYDYWGQGTQVTVSS”, the “polyreactivity (PSR sort gate)” value was “high polyreactivity”.

“QVQLVESGGGLVQAGGSLRLSCAASGFIFYRNTMGWYRQAPGKEREFVAAIRWRGGSTYYADPVKGRFTISRDNAKNTVYLQMNSLKPEDTAVYYCAADTRPGYSGFEYWGQGTQVTVSS”: the “polyreactivity (PSR sort gate)” value is “high polyreactivity”.

Take “QVQLVESGGGLVQAGGSLRLSCAASGFIFYRNVMGWYRQAPGKERELVAAISGSGGRTYYADSVKGRFTISRDNAKNTVYLQMNSLKPEDTAVYYCAADASLEGDYWGQGTQVTVSS”: the “polyreactivity (PSR sort gate)” value is “high polyreactivity”.

“QVQLVESGGGLVQAGGSLRLSCAASGFIFYRYAMGCYRQAPGTEREFVAAISFRDGITYADSVKGRFTISRDNAKNTVYLQMNTLKPEDTAVYYCNAALSQLRRGGLAMDYWGQGTQVTVSS”: the “polyreactivity (PSR sort gate)” value is on record as “low polyreactivity”.

In the case of “QVQLVESGGGLVQAGGSLRLSCAASGFIFYRYAMGWYRPAPGKVRELVAAINWSGGGTYYADSVKGRFTISRDHAKNTVYLQKNSRKPEETAVYYCAAGRSFRGSYWYEYCGQGTQVTVSS”, the “polyreactivity (PSR sort gate)” value was “high polyreactivity”.
